From patent US20250258178A1 (SHIONOGI, published 2025)

T1: Peptide #2 (human)
T1 construct: 15-mer of human HRG printed on a PEPperCHIP peptide microarray
T1 peptide: DHSHGPPLPQGPPPL

T2: Peptide #3 (human)
T2 construct: 15-mer of human HRG printed on a PEPperCHIP peptide microarray
T2 peptide: HSHGPPLPQGPPPLL

T3: Peptide #5 (human)
T3 construct: 15-mer of human HRG printed on a PEPperCHIP peptide microarray
T3 peptide: HGPPLPQGPPPLLPM

T4: Peptide #6 (human)
T4 construct: 15-mer of human HRG printed on a PEPperCHIP peptide microarray
T4 peptide: GPPLPQGPPPLLPMS

T5: Peptide #7 (human)
T5 construct: 15-mer of human HRG printed on a PEPperCHIP peptide microarray
T5 peptide: PPLPQGPPPLLPMSC

T6: Peptide #8 (human)
T6 construct: 15-mer of human HRG printed on a PEPperCHIP peptide microarray
T6 peptide: PLPQGPPPLLPMSCS

T7: human histidine-rich glycoprotein (HRG), purified from human plasma (human, UniProt P04196 19-525)
T7 construct: also called human purified HRG; human purified HRG protein
T7 sequence: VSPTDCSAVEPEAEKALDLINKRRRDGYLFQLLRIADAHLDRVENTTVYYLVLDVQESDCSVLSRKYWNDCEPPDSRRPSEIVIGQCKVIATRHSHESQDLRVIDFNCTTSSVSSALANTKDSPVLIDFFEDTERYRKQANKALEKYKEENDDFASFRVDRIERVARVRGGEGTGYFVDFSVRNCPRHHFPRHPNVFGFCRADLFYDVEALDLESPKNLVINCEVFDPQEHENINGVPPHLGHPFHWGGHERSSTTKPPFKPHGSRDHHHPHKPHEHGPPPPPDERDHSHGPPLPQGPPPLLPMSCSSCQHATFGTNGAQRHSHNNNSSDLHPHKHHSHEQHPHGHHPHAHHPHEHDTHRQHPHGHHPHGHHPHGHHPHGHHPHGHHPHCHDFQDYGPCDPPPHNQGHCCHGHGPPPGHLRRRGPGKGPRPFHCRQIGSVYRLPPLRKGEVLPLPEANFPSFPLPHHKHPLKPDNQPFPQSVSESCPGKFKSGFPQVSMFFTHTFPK

T8: Peptide #11 (human)
T8 construct: 15-mer of human HRG on the peptide microarray; the printed position spans only 14 residues
T8 peptide: HPHGHHPHGHHPHGH

T9: Peptide #12 (human)
T9 construct: 15-mer of human HRG on the peptide microarray; the printed position spans only 14 residues
T9 peptide: PHGHHPHGHHPHGHH

T10: Peptide #13 (human)
T10 construct: 15-mer of human HRG on the peptide microarray; the printed position spans only 14 residues
T10 peptide: HGHHPHGHHPHGHHP

T11: Peptide #15 (human)
T11 construct: 15-mer of human HRG on the peptide microarray; the printed position spans only 14 residues
T11 peptide: HHPHGHHPHGHHPHC

T12: Peptide #16 (human)
T12 construct: 15-mer of human HRG on the peptide microarray; the printed position spans only 14 residues
T12 peptide: HPHGHHPHGHHPHCH

T13: Peptide #17 (human)
T13 construct: 15-mer of human HRG printed on a PEPperCHIP peptide microarray
T13 peptide: PHGHHPHGHHPHCHD

T14: Peptide #18 (human)
T14 construct: 15-mer of human HRG printed on a PEPperCHIP peptide microarray
T14 peptide: HGHHPHGHHPHCHDF

T15: Peptide #19 (human)
T15 construct: 15-mer of human HRG printed on a PEPperCHIP peptide microarray
T15 peptide: GHHPHGHHPHCHDFQ

T16: Peptide #20 (human)
T16 construct: 15-mer of human HRG printed on a PEPperCHIP peptide microarray
T16 peptide: HHPHGHHPHCHDFQD

T17: Peptide #21 (human)
T17 construct: 15-mer of human HRG printed on a PEPperCHIP peptide microarray
T17 peptide: HPHGHHPHCHDFQDY

T18: Peptide #22 (human)
T18 construct: 15-mer of human HRG printed on a PEPperCHIP peptide microarray
T18 peptide: PHGHHPHCHDFQDYG

T19: Peptide #24 (human)
T19 construct: 15-mer of human HRG printed on a PEPperCHIP peptide microarray
T19 peptide: GHHPHCHDFQDYGPC

T20: Peptide #26 (human)
T20 construct: 15-mer of human HRG printed on a PEPperCHIP peptide microarray
T20 peptide: HPHCHDFQDYGPCDP

B1: anti-HRG monoclonal antibody 69-1A (antibody, V domains shown)
VH: EVKLEESGGGLVQPGGSMKLSCAASGFTFSDAWMDWVRQSPEKGLEWVAEIRSKANNHGTYYAESVKGRFTISRDDSKSSVYLRMNSLSAEDTGIYYCTRPFAYWGQGTLVTVSA
VL: DVVVTQTPLSLPVSLGDQASISCRSSQSLVHIDGNTYFHWYVQKPGQSPKLLIYKVSNRFSGVPDRFSGSGSGTDFTLKISRVEAEDLGVYFCSQSTHVPLTFGAGTKLELK
notes: Mouse hybridoma monoclonal; also called clone No. 69-1A
B2: anti-HRG monoclonal antibody 75-2D (antibody, V domains shown)
VH: QVQLQQSGAELMKPGASVKISCKATGYTFSSYWIEWVKQRPGHGLEWIGEILPGSGRTNYNEKFKGKATFTADTSSNTAYMQLSSLTSEDSAVYYCARYSYFYYFDYWGQGTTLTVSS
VL: DNVLTQSPAIMSASLGERVTMTCTASSSVSSSYLHWYQQKPGSSPKLWIYSTSNLASGVPARFSGSGSGTSYSLTISSMEAEDAATYYCHQYHRSPWTFGGGTKLEIK
notes: Mouse hybridoma monoclonal; also called clone No. 75-2D

Assays:
Peptide #2 = molecular target: T1, Peptide #2; assay: peptide microarray, fluorescent anti-mouse IgG
Experimental: (§1) An overlapping peptide scanning method was performed to find out specific antibody-binding peptide epitopes. The amino acid sequence of the HRG protein was obtained in NCBI protein database. PEPperPrint (registered trademark) (Heidelberg, Germany) was commissioned to prepare PEPperCHIP peptide microarrays designed from HRG protein sequences. Each peptide consisted of an overlapping peptide library having 15 amino acid residues overlapping 14 amino acid residues and was extended at the N- and C-terminus with a neutral GSGSGSG linker to ensure that the peptides were separated from each other. […] After treatment of 21 types of anti-HRG monoclonal antibodies, it stained with an anti-mouse IgG polyclonal secondary antibody followed by reading fluorescence intensity on a scanner to quantify protein-antibody binding.
(§2) Each microarray was processed as follows. Before incubation with a sample, a standard buffer was applied on slides followed by treating with a blocking buffer. The microarray was treated with a fluorescently-labeled anti-mouse IgG secondary antibody followed by the measurement of background fluorescence intensity caused by non-specific interactions using a scanner.
(§3) The microarray was incubated with the 21 types of anti-HRG monoclonal antibodies. The microarray was stained with a fluorescently labeled anti-mouse IgG secondary antibody. The fluorescence intensity at each position was measured by a scanner.

Peptide #3 = molecular target: T2, Peptide #3; assay: peptide microarray, fluorescent anti-mouse IgG
Experimental: as §1, §2, §3

Peptide #5 = molecular target: T3, Peptide #5; assay: peptide microarray, fluorescent anti-mouse IgG
Experimental: as §1, §2, §3

Peptide #6 = molecular target: T4, Peptide #6; assay: peptide microarray, fluorescent anti-mouse IgG
Experimental: as §1, §2, §3

Peptide #7 = molecular target: T5, Peptide #7; assay: peptide microarray, fluorescent anti-mouse IgG
Experimental: as §1, §2, §3

Peptide #8 = molecular target: T6, Peptide #8; assay: peptide microarray, fluorescent anti-mouse IgG
Experimental: as §1, §2, §3

[1] = molecular target: T7, human histidine-rich glycoprotein …; assay: sandwich ELISA, HRG captured by solid phase 75-2D
Experimental: The capture antibody solution was dispensed at 25 μL per well into 384-well Maxisorp plates (NUNC), and the plates were incubated at room temperature for 3 hours. The plates were washed twice with 120 μL of washing solution per well (0.05% Tween 20-containing PBS). A blocking solution (1% BSA-containing PBS) was dispensed at 30 μL per well, and the plates were incubated at room temperature for 3 hours. The blocking solution was removed followed by dispensing the standard substance for evaluation at 20 μL per well (n=2), and the plates were incubated at room temperature for 3 hours. After washing the plates four times with the washing solution as described above, the solution of each detector antibody was dispensed at 10 μL per well, followed by dispensing a horseradish peroxidase-streptavidin solution (0.05 μg/mL) at 10 μL per well, and the plates were incubated at room temperature for 1 hour. After washing the plates four times with the washing solution as described above, a chromogenic substrate solution (TMB (3,3′,5,5′-tetramethylbenzidine)) was dispensed at 20 μL per well followed by incubating the plates at room temperature for 10 minutes, then a reaction stop solution 0.5 M H₂SO₄ was added at 20 μL/well, and the absorbance at 450 nm was measured.
The results regarding the evaluation of combinations chosen from 21 types of anti-HRG monoclonal antibodies are shown in Table 1. In Table 1, the absorbance at a wavelength of 450 nm of each combination was determined as follows: less than 1.0 OD: −, 1.0 OD or more and less than 2.0 OD: +, 2.0 OD or more and less than 3.0 OD: ++, and 3.0 OD or more: +++. The combinations of antibodies which could construct a sandwich ELISA system having enough level of absorbance change were 86 sets evaluated as ++ or +++ in Table 1.

Peptide #11 = molecular target: T8, Peptide #11; assay: peptide microarray, fluorescent anti-mouse IgG
Experimental: as §1, §2, §3

Peptide #12 = molecular target: T9, Peptide #12; assay: peptide microarray, fluorescent anti-mouse IgG
Experimental: as §1, §2, §3

Peptide #13 = molecular target: T10, Peptide #13; assay: peptide microarray, fluorescent anti-mouse IgG
Experimental: as §1, §2, §3

Peptide #15 = molecular target: T11, Peptide #15; assay: peptide microarray, fluorescent anti-mouse IgG
Experimental: as §1, §2, §3

Peptide #16 = molecular target: T12, Peptide #16; assay: peptide microarray, fluorescent anti-mouse IgG
Experimental: as §1, §2, §3

Peptide #17 = molecular target: T13, Peptide #17; assay: peptide microarray, fluorescent anti-mouse IgG
Experimental: as §1, §2, §3

Peptide #18 = molecular target: T14, Peptide #18; assay: peptide microarray, fluorescent anti-mouse IgG
Experimental: as §1, §2, §3

Peptide #19 = molecular target: T15, Peptide #19; assay: peptide microarray, fluorescent anti-mouse IgG
Experimental: as §1, §2, §3

Peptide #20 = molecular target: T16, Peptide #20; assay: peptide microarray, fluorescent anti-mouse IgG
Experimental: as §1, §2, §3

Peptide #21 = molecular target: T17, Peptide #21; assay: peptide microarray, fluorescent anti-mouse IgG
Experimental: as §1, §2, §3

Peptide #22 = molecular target: T18, Peptide #22; assay: peptide microarray, fluorescent anti-mouse IgG
Experimental: as §1, §2, §3

Peptide #24 = molecular target: T19, Peptide #24; assay: peptide microarray, fluorescent anti-mouse IgG
Experimental: as §1, §2, §3

Peptide #26 = molecular target: T20, Peptide #26; assay: peptide microarray, fluorescent anti-mouse IgG
Experimental: as §1, §2, §3

| Binder | binding result (Peptide #2) | binding result (Peptide #3) | binding result (Peptide #5) | binding result (Peptide #6) | binding result (Peptide #7) | binding result (Peptide #8) | absorbance at 450 nm (OD450) [1] [od] | binding result (Peptide #11) | binding result (Peptide #12) | binding result (Peptide #13) | binding result (Peptide #15) | binding result (Peptide #16) | binding result (Peptide #17) | binding result (Peptide #18) | binding result (Peptide #19) | binding result (Peptide #20) | binding result (Peptide #21) | binding result (Peptide #22) | binding result (Peptide #24) | binding result (Peptide #26) |
| --- | --- | --- | --- | --- | --- | --- | --- | --- | --- | --- | --- | --- | --- | --- | --- | --- | --- | --- | --- | --- |
| B1 | binds | binds | binds | binds | binds | binds | 2 to 3 | – | – | – | – | – | – | – | – | – | – | – | – | – |
| B2 | – | – | – | – | – | – | – | binds | binds | binds | binds | binds | binds | binds | binds | binds | binds | binds | binds | binds |
